Test results taken from IntAct's records for PubMed 29039417.

B1: Isoform 2 of Bardet-Biedl syndrome 7 protein (Homo sapiens), Q8IWZ6-2 (parent)
chain: MDLILNRMDYLQVGVTSQKTMKLIPASRHRATQKVVIGDHDGVVMCFGMKKGEAAAVFKTLPGPKIARLELGGVINTPQEKIFIAAASEIRGFTKRGKQFLSFETNLTESIKAMHISGSDLFLSASYIYNHYCDCKDQHYYLSGDKINDVICLPVERLSRITPVLACQDRVLRVLQGSDVMYAVEVPGPPTVLALHNGNGGDSGEDLLFGTSDGKLALIQITTSKPVRKWEIQNEKKRGGILCIDSFDIVGDGVKDLLVGRDDGMVEVYSFDNANEPVLRFDQMLSESVTSIQGGCVGKDSYDEIVVSTYSGWVTGLTTEPIHKESGPGEELKINQEMQNKISSLRNELEHLQYKVLQERENYQQSSQSSKAKSAVPSFGINDKFTLNKDDASYSLILEVQTAIDNVLIQSDVPIDLLDVDKNSAVVSFSSCDSESNDNFLLATYRCQADTTRLELKIRSIEGQYGTLQAYVTPRIQPKTCQVRQYHIKPLSLHQRTHFIDHDRPMNTLTLTGQFSFAEVHSWVVFCLPEVPEKPPAGECVTFYFQNTFLDTQLESTYRKGEGVFKSDNISTISILKDVLSKEATKRKINLNISYEINEVSVKHTLKLIHPKLEYQLLLAKKVQLIDALKELQIHEGNTNFLIPEYHCILEEADHLQEEYKKQPAHLERLYG
partner: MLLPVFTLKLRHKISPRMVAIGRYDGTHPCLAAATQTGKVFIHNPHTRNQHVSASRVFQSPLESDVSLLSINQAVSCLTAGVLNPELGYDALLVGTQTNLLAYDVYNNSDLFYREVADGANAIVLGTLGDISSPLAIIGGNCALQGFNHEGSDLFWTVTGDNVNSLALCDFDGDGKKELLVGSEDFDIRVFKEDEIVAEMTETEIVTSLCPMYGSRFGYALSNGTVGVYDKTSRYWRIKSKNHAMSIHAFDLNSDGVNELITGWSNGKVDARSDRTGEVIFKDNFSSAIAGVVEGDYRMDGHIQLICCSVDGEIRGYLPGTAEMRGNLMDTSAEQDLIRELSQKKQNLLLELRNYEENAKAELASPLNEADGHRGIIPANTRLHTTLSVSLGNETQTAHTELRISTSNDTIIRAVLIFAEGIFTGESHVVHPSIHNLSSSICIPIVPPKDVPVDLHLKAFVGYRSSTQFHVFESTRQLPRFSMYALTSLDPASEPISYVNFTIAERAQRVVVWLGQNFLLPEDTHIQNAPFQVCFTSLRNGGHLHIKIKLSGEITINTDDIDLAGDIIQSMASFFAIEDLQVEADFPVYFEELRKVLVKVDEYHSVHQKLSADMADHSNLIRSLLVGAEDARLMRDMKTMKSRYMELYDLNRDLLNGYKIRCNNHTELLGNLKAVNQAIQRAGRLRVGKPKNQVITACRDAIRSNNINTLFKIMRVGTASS

Variants of: B1
Conditions: with bbs2_human BBS2, Q9BXC9

Effect of a mutation on the interaction, with no effect:
H635A
H635K
H635E
I597E
I597A
I597K
E599K
E599A
K621E
K621A
E651K
E651A
P611E
P611A
P611K
I643A
I643K
I643E
I609E
I609A
I609K
L632E
L632A
L632K
I649K
I649A
I649E
H604E
H604K
H604A
A628K
A628E
I626K
I626A
I626E
N590K
N590E
N590A
I589E
I589K
I589A
T639K
T639A
T639E
N598K
N598E
N598A
L613K
L613E
L613A
L591E
L591K
L591A
F641A
F641E
F641K
K622A
K622E
N640A
N640K
N640E
E631K
E631A
K630A
K630E
T605A
T605K
T605E
R587A
R587E
R587K
S594E
S594K
S594A
N638K
N638E
N638A
D627K
D627E
D627A
L629K
L629E
L629A
K607A
K607E
I593K
I593A
I593E
L617A
L617E
L617K
Y595A
